Substitutions are numbered along the chain they refer to. Entries after “also recorded” stand apart in the source; their conditions may differ. Ends that are not written are not given here.

The values below come from patent publication US6998123B1, “Osteoporosis treatment with anti-IL-11 antibody” (priority 1998, dated 2006).

For one assay, the system named is IL-11 and IL-11R. In words: productive interaction of IL-11 and IL-11R. The following applies: no test named at this place. The arrangement: species or system human.
Assay [1] has as its system murine calvaria cell culture. In words: bone nodule formation assay with IL-11 antagonists in the presence of exogenous IL-11. The assay is classed as cell-based. The conditions noted are these: 20 ng/ml exogenous IL-11; for reduction of the inhibitory effect of IL-11 on bone nodule formation: very low levels/concentrations of test substance, 21 days, FIGS. 9, 10. As for the experimental part:
Bone nodule formation was measured using standard techniques. Briefly, calvaria cell cultures were established as follows: Calvaria cells were obtained from 2 day old fetal mouse calavariae by collagenase digestion. The cells were then cultured for 21 days in the presence of 0.5 mM ascorbic acid and 10 mM β-glycerophosphate. Where indicated in the experimental descriptions below, IL-11 and the mutant IL-11 receptor of experiment 4 were added to the culture at day 0 and every 3–4 days thereafter until the removal of the medium for analysis. Bone nodule formation was quantified by counting alizarin red stain nodules under a light microscope.
The effect of a gp130 binding region mutant soluble IL-11 receptor of type described in Experiment 4 and produced by the process of Experiment 3 on bone nodule formation in the presence of 20 ng/ml of exogenous IL-11 was assessed, and the results are depicted in FIG. 9. […] Thus, IL-11 antagonists such as mutant IL-11Rs can enhance bone nodule formation.
It was desired to determine if bone nodule formation could be modulated in a manner similar to that reported in Example 6 using an IL-11 antagonist peptide such as the one used in Example 5. To achieve this, the procedure of Example 6 was repeated, with the substitution of peptide 1 for the solubilized mutant IL-11 receptor. The results of this experiment are depicted in FIG. 10.

For assay [2], the system named is cocultures of murine bone marrow and calvaria cells. In words: TRAP assay: osteoclast formation in cocultures. The assay is classed as cell-based. The following applies: for inhibition of IL-11 induced osteoclast formation (TRAP+ multinucleated cells): 20 ng/ml IL-11, 10, 100 or 1000 ng/ml test substance, 9 days, FIGS. 7A, 7B, 8. From the text: Particular IL-11 antagonists useful in the treatment of IL-11 related bone density disorders may be identified using the TRAP assay and the bone nodule formation assay, discussed herein. The TRAP assay is known in the art and involves co-culturing murine calvaria (osteoblasts) and bone marrow cells in vitro and then quantifying osteoclast formation by counting the number of tartrate-resistant acid phosphatase positive (TRAP+) multinucleated cells. […] These potential IL-11 antagonists may be screened to determine if they are IL-11 antagonists by examining their activity in the TRAP assay and the bone nodule formation assay.
Post menopausal osteoporosis is characterized by a general reduction in bone mass, resulting from an imbalance between osteoblast-mediated bone formation and bone resorption by the osteoclast. While the osteoblast is responsible for the formation of new bone or osteoid, it also appears to control the activation and/or number of osteoclasts by releasing cytokines such as IL-6 or IL-11. This process can be examined using a “TRAP assay” which involves co-culturing murine calvaria (osteoblasts) and bone marrow cells in vitro and then quantifying osteoclast formation by counting the number of tartrate-resistant acid phosphatase positive (TRAP+) multinucleated cells. Ovariectomized (OVX) rats or mice provide a satisfactory animal model for postmenopausal women in studies of osteoporosis.
The effect of IL-11 on osteoclast development in cocultures of murine bone marrow and calvaria cells was examined using standard techniques. Briefly, bone marrow cultures were established by removing femurs from mice, dissecting away soft tissue, and removing the distal and proximal ends of the femur. The marrow was then flushed with 5 ml α MEM and 1.0% penicillin-streptomycin using a 25 gauge needle. The bone marrow cells were then suspended to a concentration of 5 000 000 cells per ml in α MEM containing 15% fetal calf serum (charcoal treated) to remove cells adherent to plastic. The non-adherent cells were then co-cultured for an additional 9 days with murine calvaria cells prior to being fixed and stained for TRAPase activity (stains were obtained from Sigma Chemical Co., St. Louis, Mo.). TRAP+ MNC's have the ability to form resorption pits in smooth cortical bone slices and are therefore considered to be of osteoclast origin.
The effect of IL-11 on osteoclast development in cocultures of murine bone marrow and calvaria cells was examined by maintaining these cultures in the presence of various specific concentrations of IL-11 for 9 days. After 9 days of culture, the cells were stained for TRAPase activity and the number of multinucleated TRAP+ cells were determined. The results of this experiment are depicted in Table I. Data are expressed as mean +/− SEM. […]

The next assay has as its target Interleukin-11 (IL-11). Put plainly: cell-based or functional assay.
A further assay deals with T1, IL-11 (Homo sapiens, UniProt P20809).
T1 sequence (P20809 22-199): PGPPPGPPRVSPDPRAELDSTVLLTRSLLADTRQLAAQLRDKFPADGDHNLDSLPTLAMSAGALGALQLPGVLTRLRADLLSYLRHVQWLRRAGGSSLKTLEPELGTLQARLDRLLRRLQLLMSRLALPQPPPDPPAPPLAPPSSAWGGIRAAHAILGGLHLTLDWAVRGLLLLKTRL
The conditions noted are these: Karow et al., Biochem J. (1996); cited from earlier work.

A further assay relates to gp130. The following applies: Karow et al., Biochem J. (1996); cited from earlier work.
In assay [3] the test system is murine calvaria cells (primary osteoblasts). In words: bone nodule formation assay: effect of IL-11 alone. The format is cell-based. The conditions noted are these: various concentrations of IL-11; 250 μM ascorbic acid, 10 mM β-glycerol phosphate; FIG. 5. As for the experimental part:
The effect of IL-11 on bone formation was examined using the bone nodule formation assay. Murine calvaria cells (primary osteoblasts) were cultured in the presence of 250 μM ascorbic acid and 10 mM β-glycerol phosphate, and in the presence of various amounts of interleukin-11. After culturing, the culture media were plated out and the number of bone nodules per plate was counted.
The results are shown on the accompanying FIG. 5, where number of bone nodules per plate is plotted as the vertical axis, with the different concentrations of interleukin on the horizontal axis, not to scale. Each bar represents the result on experiments containing a different concentration of interleukin-11, as noted on FIG. 5.

Turning to SILRPDPPQGLRVESVPGYP [SEQ. ID. NO. 6], the “inhibition of the productive interaction of IL-11 and IL-11R” value (“inhibition … of IL-11 and IL-11R” for short) with IL-11 and IL-11R is “inhibit the productive interaction between IL-11 and IL-11R”. “Thr Tyr Pro Ala Ser Trp Pro Cys Gln Pro His Phe Leu Leu Lys Phe Arg Leu Gin Tyr (TYPASWPCQPHFLLKFRLQY; listed as Homo sapiens) [Peptide 2, reference compound]”: the “reduction of the inhibitory effect of IL-11 on bone nodule formation” value in assay [1] was “unable to reduce the inhibition of nodule formation by IL-11”. The “inhibition of IL-11 induced osteoclast formation (TRAP+ multinucleated cells)” value (“inhibition … (TRAP+ multinucleated cells)” for short) in assay [2] is “does not”. On to RRLRASWTYPASWPCQPHFL [Peptide 1], for which the “inhibition … of IL-11 and IL-11R” value in the assay with IL-11 and IL-11R is “binds IL-11 and prevents its productive interaction with IL-11R”. In assay [1], the “reduction of the inhibitory effect of IL-11 on bone nodule formation” value is “able to reduce the inhibitory effects of 20 ng/ml exogenous IL-11”. In addition, the “inhibition … (TRAP+ multinucleated cells)” value in assay [2] is on record as “inhibits IL-11 induced osteoclast formation”. For “H289→Y289 mutant solubilized IL-11 receptor (from UniProt Q14626 24-370)”, in the assay with Interleukin-11 (IL-11), the concentration of mutant receptor allowing enhanced bone nodule formation relative to no exogenous IL-11 was 10 ng/mL. As for RRLRASW [SEQ ID NO. 5], the “inhibition … of IL-11 and IL-11R” value in the assay with IL-11 and IL-11R is “capable of inhibiting the productive interaction of IL-11 and IL-11R”.

B1: H289→Y289 mutant solubilized IL-11 receptor: soluble human IL-11 receptor mutated H289 to Y in the gp130 binding region, expressed in BHK cells (protein)
chain: SPCPQAWGPPGVQYGQPGRSVKLCCPGVTAGDPVSWFRDGEPKLLQGPDSGLGHELVLAQADSTDEGTYICQTLDGALGGTVTLQLGYPPARPVVSCQAADYENFSCTWSPSQISGLPTRYLTSYRKKTVLGADSQRRSPSTGPWPCPQDPLGAARCVVHGAEFWSQYRINVTEVNPLGASTRLLDVSLQSILRPDPPQGLRVESVPGYPRRLRASWTYPASWPCQPHFLLKFRLQYRPAQHPAWSTVEPAGLEEVITDAVAGLPYAVRVSARDFLDAGTWSTWSPEAWGTPSTGTIPKEIPAWGQLHTQPEVEPQVDSPAPPRPSLQPHPRLLDHRDSVEQVAVLA
modifications: left off: small tags and cut ends
As for B1, in assay [1] (10 ng/ml mutant receptor, FIG. 9), the “bone nodule formation relative to level without exogenous IL-11” value is listed as “enhanced bone nodule formation relative to the level observed in the absence of exogenous IL-11”. Besides, in assay [1], the “reduction of the inhibitory effect of IL-11 on bone nodule formation” value is recorded as “can reverse the effect of exogenous IL-11”. The “inhibition … (TRAP+ multinucleated cells)” value in assay [2] is listed as “capable of inhibiting IL-11-induced osteoclast formation”.

B2: soluble form of murine interleukin-11 receptor: soluble form of murine IL-11R produced by Karow et al. (protein)
chain: B1 chain with Y266H
modifications: left off: small tags and cut ends
B2: the “affinity for IL-11 ligand” value with IL-11 is given as “high affinity”.

B3: IL-11: cytokine interleukin-11, added exogenously to cultures (protein, UniProt P47873 22-199, looked up)
Interleukin-11: PGPPAGSPRVSSDPRADLDSAVLLTRSLLADTRQLAAQMRDKFPADGDHSLDSLPTLAMSAGTLGSLQLPGVLTRLRVDLMSYLRHVQWLRRAGGPSLKTLEPELGALQARLERLLRRLQLLMSRLALPQAAPDQPVIPLGPPASAWGSIRAAHAILGGLHLTLDWAVRGLLLLKTRL
For B3, the “affinity for gp130” value in the assay on gp130 is “below the level of detection”. Also, the “effect of IL-11 on osteoclast formation in vitro” value in assay [2] (cocultures of murine calvaria and bone marrow cells) is “potent simulator of osteoclast formation”. Also, in assay [3], the “number of bone nodules per plate (bone formation)” value is “can inhibit bone nodule formation; also recorded: inhibits bone formation”.
